Biological target: T1, GITR expressed on the effector cell line of the reporter gene assay
Experiment: cell-based or functional assay

Binder	Bottom, GITR functional reporter gene assay	EC50, GITR functional reporter gene assay [µg/mL]	LogEC50, GITR functional reporter gene assay	Span, GITR functional reporter gene assay	Top, GITR functional reporter gene assay
chimeric antibody 225H7D12 (human IgG1) (antibody, V domains shown) VH: QVQLQQSGAEVMKPGASVKLSCKTTGYRFTGYWIEWVKQRPGHGLEWIGEILPGSGVSNNNEKFRDKATFTADTSSNTAYIQLSSLTTDDSAIYYCARKASYYTMDYWGQGTSVTVSS VL: QIVLTQSPAIMSASLGERVTMTCTASSSVSSFYFHWYQQKPGSSPKLWIYSISNLASGVPTRFSGSGSGTSYSLTISSMEAEDAATYYCHQYHRSPRTFGGGTKLEIKR	16800	0.0796	-1.1	37000	53800
chimeric antibody 270C5C10(Ha-L) (human IgG1) (antibody, V domains shown) VH: EVQLQQSGPEVVKPGASVKISCKASGYTFTDNYMNWAKQSQGKSLEWIGDINPNNGGSRYKEKFKDKATLTVDKSSRTAYMELRSLTSEDSAVYYCANPGSYGFAYWGQGTLVTVSA VL: not shown	18000	0.386	-1.41	31500	49500
chimeric antibody 45F1F3 (human IgG1) (antibody, V domains shown) VH: DVQLQESGPGLVKPSQSLSLTCTVTGYSITIDYAWNWIRQFPGNKLEWMGYISNSGYTSYNPSLKSRISFTRDTSKNQFFLQLNSVTPEDSATYYCTRSGHYDLFDYWGQGTTLTVSS VL: DVVMTQAPLTLSVTIGQPASISCKSSQSLFDRDGKTYLSWLLERPGQSPKRLIYLVSNLDSGVPDRFTGSGSGTDFTLKISRVEAEDLGVYYCWQGTHFPYTFGGGTKVEMKR	16300	0.0145	-1.84	32000	48300

Biological target: T1, GITR expressed on the effector cell …
Experiment: cell-based or functional assay
Remark: another data set of the same source

Binder	EC50, GITR functional reporter gene assay (luciferase) [µg/mL]
anti-GITR mouse monoclonal antibody 163H12G7 (antibody, V domains shown) VH: QVQLQQSGAELASPGASVKMSCKASGYTFSTYTVHWVKQRPGQGLEWIGYINPASGYTNYNQKFKDRATLTADRSSTTAYMQLSGLTSEDSAVFYCARWSYWYFDVWGTGTTVTVSS VL: not shown	0.0137
anti-GITR mouse monoclonal antibody 225H7D12 (antibody, V domains shown) VH: QVQLQQSGAEVMKPGASVKLSCKTTGYRFTGYWIEWVKQRPGHGLEWIGEILPGSGVSNNNEKFRDKATFTADTSSNTAYIQLSSLTTDDSAIYYCARKASYYTMDYWGQGTSVTVSS VL: QIVLTQSPAIMSASLGERVTMTCTASSSVSSFYFHWYQQKPGSSPKLWIYSISNLASGVPTRFSGSGSGTSYSLTISSMEAEDAATYYCHQYHRSPRTFGGGTKLEIK	0.0796
anti-GITR mouse monoclonal antibody 134D7B3 (antibody, V domains shown) VH: QVQLQQSGAELVRPGTSVKVSCKASGYAFNNYVIEWVKQRPGQGLEWIGVIYPGNGGSDYNEKFKVKAKLTADKSSSTAYMQLSSLTSDDSAVYFCARFYYFGSSYAMDYWGQGTSVTVSS VL: DIQMTQTTSSLSASLGDRVTISCRASQDISNYLNWYQQKPDGTIKLLIYYTSRLHSGVPSRFSGSGSGTDYSLTITNLEQEDIATYFCQQGNTLPFTFGSGTKLEIK	1.05
anti-GITR mouse monoclonal antibody 223F12C4 (antibody, V domains shown) VH: QVQLQQSGAELVKPGASVKVSCKASGYSFTSYWIHWVKQRPGQGLEWIGRIHPSDGDIDHNEKFKGKATLTVDKSSSTAYMQLTSLTSEDSAVYYCLCYIMDYWGQGTSVTVSS VL: DIQMNQSPSSLSASLGDTIAITCHASQNINVWLSWYQQKPGNIPKLLIYKAAKLQTGVPSRFSGSGSGTGFTLTISSLQPEDIATYYCHQGQDYPLTFGAGTKLELK	0.151
anti-GITR mouse monoclonal antibody 45F1F3 (antibody, V domains shown) VH: DVQLQESGPGLVKPSQSLSLTCTVTGYSITIDYAWNWIRQFPGNKLEWMGYISNSGYTSYNPSLKSRISFTRDTSKNQFFLQLNSVTPEDSATYYCTRSGHYDLFDYWGQGTTLTVSS VL: DVVMTQAPLTLSVTIGQPASISCKSSQSLFDRDGKTYLSWLLERPGQSPKRLIYLVSNLDSGVPDRFTGSGSGTDFTLKISRVEAEDLGVYYCWQGTHFPYTFGGGTKVEMK	0.0145

Biological target: T1, GITR expressed on the effector cell …
Experiment: cell-based or functional assay
Remark: another data set of the same source

EC50, GITR functional reporter gene assay (GenScript, NFkB luciferase) [µg/mL]	Binder
0.0745	humanized antibody 270C5C10 VH1.2 + VL1 (antibody, V domains shown) VH: QVQLVQSGAEVKKPGASVKVSCKASGYTFTDNYMNWVRQAPGQSLEWIGDINPNNGGSRYKEKFKDRATLTVDTSIRTAYMELSRLRSDDTAVYYCANPGSYGFAYWGQGTLVTVSS VL: DVVMTQSPLSLPVTLGQPASISCKSSQSLLDSDGRTYLNWFQQRPGQSPRRLIYLVSQLDSGVPDRFSGSGSGTDFTLKISRVEAEDVGVYYCWQGTHFPWTFGGGTKLEIK
~0.0355	humanized antibody 270C5C10 VH1.4 + VL1 (antibody, V domains shown) VH: QVQLVQSGAEVKKPGASVKVSCKASGYTFTDNYMNWARQSPGQSLEWIGDINPNNGGSRYKEKFKDRATLTVDTSIRTAYMELSRLRSDDTAVYYCANPGSYGFAYWGQGTLVTVSS VL: DVVMTQSPLSLPVTLGQPASISCKSSQSLLDSDGRTYLNWFQQRPGQSPRRLIYLVSQLDSGVPDRFSGSGSGTDFTLKISRVEAEDVGVYYCWQGTHFPWTFGGGTKLEIK
1.17	humanized antibody 225H7D12 VH1.1 + VL1.2 (antibody, V domains shown) VH: QVQLVQSGAEVKKPGASVKVSCKTTGYRFTGYWIEWVRQAPGQGLEWIGEILPGSGVSNNNEKFRDRATMTADTSISTAYMELSRLRSDDTAVYYCARKASYYTMDYWGQGTLVTVSS VL: DIQMTQSPSSLSASVGDRVTITCTASSSVSSFYFHWYQQKPGKAPKLWIYSISNLASGVPSRFSGSGSGTSYTLTISSLQPEDFATYYCHQYHRSPRTFGGGTKLEIK
1.18	humanized antibody 225H7D12 VH1.3 + VL1.2 (antibody, V domains shown) VH: QVQLVQSGAEVKKPGASVKVSCKASGYRFTGYWIEWVKQAPGQGLEWIGEILPGSGVSNNNEKFRDRATMTADTSINTAYMELSRLRSDDTAVYYCARKASYYTMDYWGQGTLVTVSS VL: DIQMTQSPSSLSASVGDRVTITCTASSSVSSFYFHWYQQKPGKAPKLWIYSISNLASGVPSRFSGSGSGTSYTLTISSLQPEDFATYYCHQYHRSPRTFGGGTKLEIK
1.46	humanized antibody 225H7D12 VH1.4 + VL1.2 (antibody, V domains shown) VH: QVQLVQSGAEVKKPGASVKVSCKTTGYRFTGYWIEWVKQAPGQGLEWIGEILPGSGVSNNNEKFRDRATFTADTSINTAYMELSRLRSDDTAVYYCARKASYYTMDYWGQGTLVTVSS VL: DIQMTQSPSSLSASVGDRVTITCTASSSVSSFYFHWYQQKPGKAPKLWIYSISNLASGVPSRFSGSGSGTSYTLTISSLQPEDFATYYCHQYHRSPRTFGGGTKLEIK
1.09	humanized antibody 45F1F3 VH1.4 + VL1.1 (antibody, V domains shown) VH: DVQLQESGPGLVKPSQTLSLTCTVTGYSITIDYAWNWIRQPPGKGLEWMGYISNSGYTSYNPSLKSRITFSRDTSKNQFFLKLSSVTAADTAVYYCTRSGHYDLFDYWGQGTTVTVSS VL: DVVMTQSPLSLPVTLGQPASISCKSSQSLFDRDGKTYLSWLLQRPGQSPRRLIYLVSNLDSGVPDRFSGSGSGTDFTLKISRVEAEDVGVYYCWQGTHFPYTFGGGTKVEIK

Second part, the binder before the results:

Binder	EC50, GITR functional reporter gene assay (GenScript, NFkB luciferase) [µg/mL]
chimeric antibody 225H7D12 (human IgG1) (antibody, V domains shown) VH: QVQLQQSGAEVMKPGASVKLSCKTTGYRFTGYWIEWVKQRPGHGLEWIGEILPGSGVSNNNEKFRDKATFTADTSSNTAYIQLSSLTTDDSAIYYCARKASYYTMDYWGQGTSVTVSS VL: QIVLTQSPAIMSASLGERVTMTCTASSSVSSFYFHWYQQKPGSSPKLWIYSISNLASGVPTRFSGSGSGTSYSLTISSMEAEDAATYYCHQYHRSPRTFGGGTKLEIKR	1.26
chimeric antibody 270C5C10(Ha-L) (human IgG1) (antibody, V domains shown) VH: EVQLQQSGPEVVKPGASVKISCKASGYTFTDNYMNWAKQSQGKSLEWIGDINPNNGGSRYKEKFKDKATLTVDKSSRTAYMELRSLTSEDSAVYYCANPGSYGFAYWGQGTLVTVSA VL: not shown	~0.0374
humanized antibody 45F1F3 VH1.3 + VL1.1 (antibody, V domains shown) VH: QVQLQESGPGLVKPSQTLSLTCTVTGYSITIDYAWNWIRQPPGKGLEWMGYISNSGYTSYNPSLKSRVTISRDTSKNQFFLKLSSVTAADTAVYYCTRSGHYDLFDYWGQGTTVTVSS VL: DVVMTQSPLSLPVTLGQPASISCKSSQSLFDRDGKTYLSWLLQRPGQSPRRLIYLVSNLDSGVPDRFSGSGSGTDFTLKISRVEAEDVGVYYCWQGTHFPYTFGGGTKVEIK	1.08
chimeric antibody 45F1F3 (human IgG1) (antibody, V domains shown) VH: DVQLQESGPGLVKPSQSLSLTCTVTGYSITIDYAWNWIRQFPGNKLEWMGYISNSGYTSYNPSLKSRISFTRDTSKNQFFLQLNSVTPEDSATYYCTRSGHYDLFDYWGQGTTLTVSS VL: DVVMTQAPLTLSVTIGQPASISCKSSQSLFDRDGKTYLSWLLERPGQSPKRLIYLVSNLDSGVPDRFTGSGSGTDFTLKISRVEAEDLGVYYCWQGTHFPYTFGGGTKVEMKR	~1.09

Source: patent US20230064703A1 (NANJING GENSCRIPT BIOTECH, published 2023)
